The text below walks through data of patent US20110207628A1.

Assay [1] concerns the target FLAG-tubby-F (full-length mouse tubby with N-terminal FLAG tag) (mouse) (UniProt P50586). The experiment in a line: clonal phage on immobilized FLAG-tubby-F, plaque assay.
Assay [2] has as its target tubby-N (N-terminus of mouse tubby, 1M-242P), GST-free (mouse) (UniProt P50586). The experiment in a line: clonal phage on immobilized tubby-N, plaque assay.
Assay [3] concerns the target Axl-Fc (Axl extracellular domain fused to human IgG1 Fc fragment) (human). The experiment in a line: clonal phage on immobilized Axl-Fc, plaque assay.

Chain of FLAG-tubby-F (full-length mouse tubby with N-terminal FLAG tag) (mouse) (P50586 other isoform, or with tags, fused parts or gaps): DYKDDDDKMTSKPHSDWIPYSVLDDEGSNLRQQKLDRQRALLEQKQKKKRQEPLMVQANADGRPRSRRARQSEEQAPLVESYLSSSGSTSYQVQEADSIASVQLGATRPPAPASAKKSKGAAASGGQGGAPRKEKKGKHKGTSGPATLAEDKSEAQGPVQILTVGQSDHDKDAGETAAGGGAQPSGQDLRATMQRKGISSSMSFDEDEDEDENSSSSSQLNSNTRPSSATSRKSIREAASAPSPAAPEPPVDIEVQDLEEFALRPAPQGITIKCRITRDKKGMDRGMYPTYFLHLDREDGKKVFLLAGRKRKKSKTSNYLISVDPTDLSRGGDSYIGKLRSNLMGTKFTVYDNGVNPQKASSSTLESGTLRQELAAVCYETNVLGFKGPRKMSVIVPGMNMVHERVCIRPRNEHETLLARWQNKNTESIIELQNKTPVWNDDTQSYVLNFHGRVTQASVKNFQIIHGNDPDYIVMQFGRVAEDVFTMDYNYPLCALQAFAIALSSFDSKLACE
Chain of tubby-N (N-terminus of mouse tubby, 1M-242P), GST-free (mouse) (P50586 1-242): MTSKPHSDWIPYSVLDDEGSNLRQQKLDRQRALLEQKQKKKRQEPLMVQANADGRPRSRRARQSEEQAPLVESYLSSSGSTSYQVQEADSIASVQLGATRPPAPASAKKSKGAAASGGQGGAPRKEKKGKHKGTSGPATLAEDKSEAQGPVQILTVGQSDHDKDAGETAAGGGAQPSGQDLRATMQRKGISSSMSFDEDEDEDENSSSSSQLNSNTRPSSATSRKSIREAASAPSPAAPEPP

Regarding “High mobility group box 2-like 1 (Hmgb211) 170K-305G, phage clone”, the Binding to tubby-F (binding specificity to FLAG-tubby-F vs. to GFP-FLAG) in assay [1] is 5 X (fold). Besides, the Binding to tubby-N (binding specificity of clonal phage vs. control phage) in assay [2] was 29.8 X (fold). As for “PH180: Lectin, galactose binding, soluble 3 (Lgals3) 131Y-264I, phage clone (from UniProt P16110 131-264)”, in assay [3], the Binding activity (pfu ratio of clonal phage binding to immobilized Axl-Fc versus blank) was 1380 X (fold). Turning to “Paf1/RNA polymerase II complex component (Rtf1) 69N-186K, phage clone (from UniProt A2AQ19 69-186)”, the Binding to tubby-F (binding specificity to FLAG-tubby-F vs. to GFP-FLAG) in assay [1] is 6.2 X (fold).

For the substance “Unknown protein encoded by Chromosome X Genomic contig, alternate assembly (NW_001035178, 7824017-7824523 bp), phage clone”, in assay [1], the Binding to tubby-F (binding specificity to FLAG-tubby-F vs. to GFP-FLAG) was 3.1 X (fold). The Binding to tubby-N (binding specificity of clonal phage vs. control phage) in assay [2] is 40.1 X (fold).
